Experiment: soluble on expression in E. coli; label from the status in PepcDB or PDB records
In the case of “MAHHHHHHMMLRSHVGYDDLQNGGSDQPVSFLRSAAGRTYLADGSSALSSAQLTAAQKLLPLTDRSSQAALDAARLEPPIEHASVMYHGCQQAVLNAELREKVEAHYKHWSSRVEELQALLSDLPTESALHSTRAVENLHSYLGAYRCTEDMLVTPSEVVEQHALRTPVPEIDVMFQMPAIPMDTMRRALDDLLRSPYLLAPLDTHLAHLSLLDKLGQLSWSGEGEVTAPLSKKPRGKRAVARKDCTVDESNETGVVLQAEEAAAEEDIYPSRAAVAMHERLHYNPGDYAQRELKKSEEALRELQDRMQTAKRQKEEAIDAADPLTALRNLHAQVDFSNDLLLLYRARMALVSLHSDDTRDFRRDVVDLIDDSHQSVQAVHRYAREALPSVQHDVRAMTEVIRQTQQRLIAMQATEAAADAGMRAHLCDMDKAARVLWEEVGALLEKIAENARERGRYAQKCMSLREQRAKEAAAVNAQLQAQSAHCERLCRCEEVLTRWNQAGDVFGKYMDACVPKLLKHLAAVEESDADLAQREAEGYVGCYEQFVYAAEEARAKRCTQADRMRLLQRSTLLNQERASDTMDPDAPAHAQRLDDVSRELDEVQLYLKYLSDMEADRKAEVDPVLRGVLARQTQAQLVTTGEEGEAEKPLPTPGLLEDAPAASTADAKPSLASPSTAAETTKSTSAVPATAAGDGAVVAATTTATTTAPPSLSVTVAHPFVTARLIGLAHESDYISQQGQLLGQEMQAVEAKWTGLRHSRKELQAMEEKYKNGDDIRALLGVEKL”, the “soluble on expression in E. coli” value is reported as “soluble”.
In the case of “MAHHHHHHMMNTSLLGQDVDEIQSAVDRWYHQSSSNLQASHAAFTAQLRQLQERLGLDPGAPTLSAHVDAMITPPRHMYLSDDNNSGSPPMASPPISRGQLNYDHLLDEVINKGASMPPFNPEEEAERRRRPNAESVRAPSTPPEDCNGPCQVLVEFKRKRVLQYESPYYVAPGEHVVVGGDRGEDIGLVTHSWRDAEAHQLGENRDKGVGKVLRVASVLEVTQLQGVQTELETRAVEVAQEKVQESGLPMRIVDAEYQFDRRKLTFYYQSMHRLDFRTLVRDLYKTFRARIWMEPDTSS”, the “soluble on expression in E. coli” value is reported as “soluble”.
With “MAHHHHHHMMRRVYAPVFCSVAAARFAATSAAKKYDLFGYEVDTNTAPWIEKIKKCKYYDEAGEVLVNMNVSNCPPDIATYNATLQCIYQSPSKQSTPVDNESKFCAMMDLLEEMQHRNRLKPNEESWTWVMKECVKSGQFRLGYCIQQVMETECKGCPADLVKANEANAQKAKTEGKEHPGHLSQQAGLFDVKVE” the “soluble on expression in E. coli” value was “not soluble”.
For “MAHHHHHHMMSQSLNALRSGTACFPTTIAQQRRWITRLYTSYYPGVLYPNQLVQHKQRLPPGVSLSTALKARTQTRQEQSVAGREVPEENETRGVSWTDASSTDVMHTGNARRQEKVSVATGRSYVPLGEVAKLELQGDYCMEGGLFQEALERYGVVAKAYSIAYPENHSQRIGILLKLASAFRHVGRLDSSKVNIENALKMLDASSRPSLELICEALLELGLTREAKSMKNEGAEAYEEAVEVLNLFHNWGESHRMLRLLPRLGRRFNLNFEEKFVYFSPFDYDRTFAIADQCMERAEKVYRETGDSNGIIRVLQCRKEMIDKKFFNLRDFAGRIHTMRGHWMRRAQHLTNAPTPDELLRYTPTIHQVYRDFKYELTAPIGREKEVMPGVNRVVLDMGNPYRRRGRLSNKMLRDADHNFANYVRREEYNA”, the “soluble on expression in E. coli” value was “not soluble”.
With “MAHHHHHHMNGRYVPQEVLGTGTYGRVLRCNDVLTGRQVAVKVSQRDAAYRRSAMNEIRVLQLLSHTDNALKMFDFFEDSGHLCIASELLCTDFYEVLRKNGFQPLSLDTVRIVGERVLRALAELHKAGYMHCDIKPANVMLRFNETDRSNLSDFTKTCLIDFGAARQFHENTYYDVQSLWYRAPEVMLGLPYTSHIDSWSVGCLLFELYTGKPLFAGENPREQMTSIMCTVGMPPMEAFSSGANVEKLQLPCLAMDVNAEANLRNLIASYRCNNTGFNHSYQLVGEESAFVNLLCALLQPDVRWRLSCTDALHHAFFTSRCLYHGNIVSANFSVFSPSSNGLQSSIDSNFGAVFSSTGNDARGFGGFEHLVPQQTQPHPNPHPQPRLKSESSPILPANSNSVPLVGLVGSPPGMVLPGTRPPASSQVNIPSSRVVLQNVMYPTPPMKIIQPVPFNTQQSQKALQQPQRVSANMLPVMVSAIGNPYSFPPCVRPECQVQNWEPVIFQPQQQIPPEVTPMFQCKILPGGCQYNYQGGADPSFYGASIKSGLHSAVYVPS” the “soluble on expression in E. coli” value was “not soluble”.
For “MAHHHHHHMNKFENFYKVPISYKNRKNEIYKYDNLEYNKMKYGMPEYYRCPYYMHENRNLYNTESCYTPNINVGRNSFYGKTLDPNDKICEENDSVYNILEEDHKEESFKKIECMNKEDDRKKIYNKVEKNDDENIDNKKHNYCEKYEEVYPKDRSSIKIIYNDVDQQIDHNLYDDENEIVCDNEIKKRKKRDRKVFMGKYFFSDIINTIIYPCTNKSLQKYQYGSVENMDYSLYNDIQKGQKIQKVDKIKNKKAPQIIVKF”, the “soluble on expression in E. coli” value was “not soluble”.
For “MAHHHHHHMNLKTKLQKRRDEVNTCLCIGLDPDEADIKSFMQSEKQNGYQSIKKNLSNHGSSSQGGLFTPQVGGTMLLAENPPKEVQEKDEFFYFFNHFCFYIINETKQYALSYKMNFAFYLPYGSLGVDVLKNVFDYLHYLDVPTILDIKMNDIGNTVKHYSKFIFHYLRSDSCTANIYMGTHMLRDICLDEECKRHYSTFVLIKTTNPDSHIFQNRLSLDGKEAYVVIADEAQKMAKQLHLEENGEFVGFVVGANCYDEMKKIRELFPDCYILAPGVGAQKGDLRKTLCNGYSKNYERLLINVGRAITKSGNPQQAAREYYHQIKEILAELRE”, the “soluble on expression in E. coli” value was “soluble”.
With “MAHHHHHHMNLNKKNEELEKVKIVLTQKIKNLESNLSPKESEIKVMREKIDEMAKSFENNHKKRVNLQIEINEYKMKIKFLHDDLLNYNKTIMNYEKILKNLQDHIKECYLHLHDKKIFNSSFLNLYNKFHKVNDVQNYDAKNVFSEYIRQKEYLENMIEVLKDKLHKETEAFRNEKIKMMNENSLLLKEINDLKMDLNFLKSECHEAQLQNRKMKFLKKRSESKERKKEKKEKKEKKEKKENKDNNEEKNIDIK” the “soluble on expression in E. coli” value was “soluble”.
In the case of “MAHHHHHHMNNSKENDSVSKLSFKNKNIKLIKVPKFVSNKWLQYNNKDIVGLLGCNNNNNNDSEITELYVQKDDSDNVKKLRCNKNNTVNTYILKQNVIKLKSTNKSVSNSAGTLNNKSNDYTNTNKGKNTMNNLSKDNSDKHKEFDYVVCADLIKTCDYTYSFLPTLDQDYSSILKERHYKTNVKKERFTIIETRNEENMDATHTLFKYYTSEDKLNNESKDKNMKNNKRLFTDNDNLNTVSHSTSKQKAKQSKKMHVFDLDKAKISIFKIFEREGQNGVPFSFFTKSFNIPANHIKGILDEIAIKGKRDTDKKTVYFLKNCIG”, the “soluble on expression in E. coli” value is reported as “not soluble”.
For “MAHHHHHHMNTFFLSRFRGGTFFLQKYEKIWNRAKGYHTYNYIFQNNKNIINHKKKNRNLFLYEKRNFYTSNDGKKYTKKFWNHLGFVIIPQETAYIVERLGKYNKTLLAGIHFLIPFIDKIAYVFSLKEETITIPNQTAITKDNVTLNIDGVLYIKCDNPYNSSYAIEDAVFAVTQLAQVTMRSELGKLTLDATFLERDNLNEKLVKAINESAKNWGIKCMRYEIRDIILPVNIKNAMEKQAEAERRKRAEILQSEGERESEINIAIGKKRKSILIAEGQSFAIKAKADATAEAIEIISNKIKKLDSNNAISLLVAEQYIDVFSNICKNNNTVIIPADLNNISSLISQSLSIYNNIQNSKKENNQIHTLPIQKQIHSDMNN”, the “soluble on expression in E. coli” value was “not soluble”.
In the case of “MAHHHHHHMNTSLSNNENENNFFIKSFFESLSNFIKNIKIEIKDTFELLNYPCVYQNSKKKFSVSENEDYKNSLTTNVISKIDKKNIENFRVYQKELHNILQNIKTFNEKYKLDVPLLSIMENLIILHLINEYKINNIVKKIQEHNIPMPELNSDLPDYLIPTLELEENQNESNLNVSISEINNLSINNNAVKHILENAQLKVDFSKLVKLNGENHLNSSSINPSSELNEKSDELTLYKKDDKIHNLTHDIKEEINNERNEDQYLNRSHNNEDEKHTLMTSKKEEKVNLIQNIGLSEETLKLLNLLPKKRKNDQN”, the “soluble on expression in E. coli” value is reported as “not soluble”.
For “MAHHHHHHMPFSLGELQNVFLDALTGCPPDAPQQTRDTAVTVAGASIFAGSWQPLESTRVPVRAYLRGTGEFDTEDSCRRAVMRVVDATLNDVLNDDAVNAFIGAKACESADIVGACEHILRKYLLWMLDGYLHYDGTPQCPFYDALKSTVCAFSVEWGQTFGPMFAEAQSPDEFFSLLVTRGAQHHATAVATNPDDAKVRMATAMSIQVFLMAKTYSPSTPFPSRVAL”, the “soluble on expression in E. coli” value was “soluble”.
With “MAHHHHHHMPLIVPTPPAHPAQSPNQANGELLGRLMKLYRALCVRHDELGQEVILNDILAFLTRTHQHDMAESVIATCEISLPHRSNNQAARYFYYVGLTRALRLEYVDANQCLQQALRKAPERAFGFRVAATKLALVVQLLLGEIPPRSDFLQKDMRESLSPYLQLASCVRFGQLSRFMSILQQHKNIFEHDRTYSLILRVRQHVIKTGLRRICHAYSRISIPDICFKLSMENPADAEYIIAKAIRDGVIDAVIDHEKGHLISSDTVDVYSTSEPLLALQRRIQFLNVTHNDAKRSMRYTAADPELEEERRKVDREEMDSALRAALEDEELGGTDFEDGLP” the “soluble on expression in E. coli” value was “not soluble”.
For “MAHHHHHHMPLNAQQLLFHLARRNSAPPWRWFPTATENKLFERLDTSGSPTAQVVYSQFVQARLQGSCSAGTAPIQLDLFLDELTPSDDGDYILRCPLANSHLMKRLVVPAPMRIAMHGLLQEVIDVFQQAGIRYWAAGGTLLGAVRHGCIIPWDDDVDLAISVEDELKLRSAFKYPCAHGSDDNIGDNSGDCNSEYSSESSSNEVEKNDGNNGGNLVLEYVPLFGYKVYSRLLPPPFPSPSLPGVGSSCLRYGYFVDIFIMRESKNRFVLARESAQRTWPDEWWHVDELFPLLQKPFAAVAACASEQHPQTALQLSVGRYPLMHLHRLYGETCMQEALIPRELHGRELSHSLRIPLELL”, the “soluble on expression in E. coli” value was “not soluble”.
With “MAHHHHHHMPLVEYVNEEGYRLDGRKEDECRLIKINVGNENIFTDADGFAFYEIGNTKLLSYIQGPTELKKSEEKCSIKCEVFLSPFNVYEKKKKKTKDSVTNEISAYIRNICENIILLDLYKNSEINIFLYIIERDGGVKHAAINTCILALIDAGIAIKYFISACSVLFLQNRILVDGNQLEINSGAPELTMVIELNTHKIVLLEFDAEVPIDIFEAMVRTCMDCCINLGNVMKLTVKENAIKLLCLNNMLNA” the “soluble on expression in E. coli” value was “not soluble”.
For “MAHHHHHHMPPPNTLQRGSEWVAQCMRDIKAAKLQQTVRPYSNGTPAGEALPVRTIVATSRIHRGEHLGTVKRDSIMTGERASQLLRRACRGGPSQTDVTAATGLQPLAAQRFDDLVSRISSLPSALSVPPHLLLSRDALLVTVALYLTRSPLNAGVLPAESPLRAWADALPRRPPPMGALLRRSFLSHDDVEPLPRRLRLGQRTKEVAPGEDVAAASTELMVQAVEQGELELADLRRPEMETALTPTVLTNYFKGRMSALTQRQRQSQRARGGVAEAEEGALHLFMTWERQLQTHFVDALLPVLLLPSCGSCASNLEAVQDSAAWLGEESALRWAHFMTRSRAVNLNWRHPGPPQLSIVPLVDMLNHTSRANANVVYQREDSGDVCVTASRTIEAGEELVLRYNHIGQRGCLFGDLPRPSKPTAEHERGRLSGKAAAVADEVHRIEKRQYWELYACDEDEEAVQHTGHTPSTSFTASTRCGTFDPAPPAAVGQQEMEQEVQWLWRFGFLRSNEEKNREAALLWSRGLRSRIAHLTDVRRKGRPGEFVLGVPEGLQHLREQREQLERNRYNNKKVFPPQQL”, the “soluble on expression in E. coli” value was “not soluble”.
For “MAHHHHHHMPQCGTEKHVSAPPSYTGPFVAVVVDLDGTILDDNHRVSDVTKATLYEVASCGVHIIIATGRPREGVAAIEQELNSYFRCNSRVPGRATSLAEVKGFHLVASNGARIYNTTGELISAESIDNSVVRAIYERVTESNINANSEDSMLVSVHQTGAWWVNNVLPEEWLRRKYGTLPEVRQNLSDFPTDGVGKICLRSFNEGTLRTFQKELDTKYEHYITTVMTSDHCLDIMPKGVSKASALRMVGEILNFEPHRDAIAFGDSLNDRDMLESVAKGCIMKNGKNELKELLPHVEVVGCNEEDGVAHKLREVFLLS”, the “soluble on expression in E. coli” value was “not soluble”.

Reference: the DeepSol protein solubility set
